This data set deals with the molecule itself. Nature of the data set: directed yeast two-hybrid, self-association (same fragment as bait and prey).

B1: Sr33 CC1-225 (CC-NB domain of Sr33) (other)
chain: MDIVTGAIAKLIPKLGELLVGEYKLHKGVKKNIEDLLKELKTMNAALIKIGEVPPDQLDSQDKLWADEVRELSYVIEDAVDKFLVRVHGVEPDDNTNGFKGLMKRTTKLLKKVVDKHGIAHAIKDIKKELQEVAARRDRNKFDGIASIPTEAIDPRLRALYIEAAELVGIYGKRDQELMSLLSLEGDDASTKKLKKVSIVGFGGLGKTTLAKAVYEKIKGDFDCH
notes: Expressed as both bait and prey in yeast two-hybrid; The fused GAL4 domains are not included; also called Sr33 CC225
As for B1, the binding result is given as “no binding”.

B2: Sr33 CC1-125 (truncated portion of the CC domain of Sr33) (other)
chain: MDIVTGAIAKLIPKLGELLVGEYKLHKGVKKNIEDLLKELKTMNAALIKIGEVPPDQLDSQDKLWADEVRELSYVIEDAVDKFLVRVHGVEPDDNTNGFKGLMKRTTKLLKKVVDKHGIAHAIKD
notes: Expressed as both bait and prey in yeast two-hybrid; The fused GAL4 domains are not included; also called Sr33 CC125
For B2, the binding result is on record as “no binding”.

The values above are taken from patent publication US20160138042A1 (COMMONWEALTH SCIENTIFIC AND INDUSTRIAL RESEARCH ORGANISATION, published 2016).
